Test results from patent US20120315284.

T1: GST-c-Jun, P05412
T1 chain: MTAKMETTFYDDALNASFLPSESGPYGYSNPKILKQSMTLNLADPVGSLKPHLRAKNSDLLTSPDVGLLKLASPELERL


Key:
GST-c-Jun, P05412 = target: T1, GST-c-Jun, P05412
[1] = target: recombination GST-JNK1, P45983

| Protein | in vitro immune-co-kinase analysis (32P phosphorylation) (GST-c-Jun, P05412) | in vitro immune-co-kinase analysis (32P phosphorylation by immunoprecipitated MKK7) [1] |
| --- | --- | --- |
| recombination GST-JNK1 (protein) MSRSKRDNNFYSVEIGDSTFTVLKRYQNLKPIGSGAQGIVCAAYDAILERNVAIKKLSRPFQNQTHAKRAYRELVLMKCVNHKNIIGLLNVFTPQKSLEEFQDVYIVMELMDANLCQVIQMELDHERMSYLLYQMLCGIKHLHSAGIIHRDLKPSNIVVKSDCTLKILDFGLARTAGTSFMMTPYVVTRYYRAPEVILGMGYKENVDLWSVGCIMGEMVCHKILFPGRDYIDQWNKVIEQLGTPCPEFMKKLQPTVRTYVENRPKYAGYSFEKLFPDVLFPADSEHNKLKASQARDLLSKMLVIDASKRISVDEALQHPYINVWYDPSEAEAPPPKIPDKQLDEREHTIEEWKELIYKEVMDLEERTKNGVIRGQPSPLAQVQQ | the activated JNK1 phosphorylated GST-c-jun protein, a substrate of JNK pathway |  |
| MKK7 in cell lysate (immunoprecipitated with MKK7 antibody; the cells' own MKK7) (protein) AASSLEQKLSRLEAKLKQENREARRRIDLNLDISPQRPRPTLQLPLANDGGSRSPSSESSPQHPTPPARPRHMLGLPSTLFTPRSMESIEIDQKLQEIMKQTGYLTIGGQRYQAEINDLENLGEMGSGTCGQVWKMRFRKTGHVIAVKQMRRSGNKEENKRILMDLDVVLKSHDCPYIVQCFGTFITNTDVFIAMELMGTCAEKLKKRMQGPIPERILGKMTVAIVKALYYLKEKHGVIHRDVKPSNILLDERGQIKLCDFGISGRLVDSKAKTRSAGCAAYMAPERIDPPDPTKPDYDIRADVWSLGISLVELATGQFPYKNCKTDFEVLTKVLQEEPPLLPGHMGFSGDFQSFVKDCLTKDHRKRPKYNKLLEHSFIKRYETLEVDVASWFKDVMAKTESPRTSGVLSQPHLPFFR |  | MKK7 was activated by depletion of TIP41 and phosphorylated GST-JNK1, a substrate of MKK7 |
